The target of this experiment is T1, NAA10 H16P-V5 (human, UniProt P41227-1 1-235, H16P).
T1 sequence (looked up): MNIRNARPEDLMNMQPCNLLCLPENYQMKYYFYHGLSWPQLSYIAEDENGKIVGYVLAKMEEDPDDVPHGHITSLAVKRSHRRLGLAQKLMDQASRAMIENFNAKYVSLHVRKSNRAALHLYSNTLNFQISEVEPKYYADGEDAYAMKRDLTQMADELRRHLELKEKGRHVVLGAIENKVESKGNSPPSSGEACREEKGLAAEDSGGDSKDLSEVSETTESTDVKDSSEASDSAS
The experiment in a line: cell-based or functional assay.

B1: NAA15 (natural protein, human (endogenous in HeLa), UniProt Q9BXJ9 1-866, looked up)
chain: MPAVSLPPKENALFKRILRCYEHKQYRNGLKFCKQILSNPKFAEHGETLAMKGLTLNCLGKKEEAYELVRRGLRNDLKSHVCWHVYGLLQRSDKKYDEAIKCYRNALKWDKDNLQILRDLSLLQIQMRDLEGYRETRYQLLQLRPAQRASWIGYAIAYHLLEDYEMAAKILEEFRKTQQTSPDKVDYEYSELLLYQNQVLREAGLYREALEHLCTYEKQICDKLAVEETKGELLLQLCRLEDAADVYRGLQERNPENWAYYKGLEKALKPANMLERLKIYEEAWTKYPRGLVPRRLPLNFLSGEKFKECLDKFLRMNFSKGCPPVFNTLRSLYKDKEKVAIIEELVVGYETSLKSCRLFNPNDDGKEEPPTTLLWVQYYLAQHYDKIGQPSIALEYINTAIESTPTLIELFLVKAKIYKHAGNIKEAARWMDEAQALDTADRFINSKCAKYMLKANLIKEAEEMCSKFTREGTSAVENLNEMQCMWFQTECAQAYKAMNKFGEALKKCHEIERHFIEITDDQFDFHTYCMRKITLRSYVDLLKLEDVLRQHPFYFKAARIAIEIYLKLHDNPLTDENKEHEADTANMSDKELKKLRNKQRRAQKKAQIEEEKKNAEKEKQQRNQKKKKDDDDEEIGGPKEELIPEKLAKVETPLEEAIKFLTPLKNLVKNKIETHLFAFEIYFRKEKFLLMLQSVKRAFAIDSSHPWLHECMIRLFNTAVCESKDLSDTVRTVLKQEMNRLFGATNPKNFNETFLKRNSDSLPHRLSAAKMVYYLDPSSQKRAIELATTLDESLTNRNLQTCMEVLEALYDGSLGDCKEAAEIYRANCHKLFPYALAFMPPGYEEDMKITVNGDSSAEAEELANEI
In the case of B1, the “Nt-acetylation assay of the V5 immunoprecipitate towards the monomeric NAA10 substrate EEEI24, normalized to NAA10-V5, relative to NAA10 WT-V5” value came out at 1.5 fold.

The values above are taken from publication PMC7374887, “Severe syndromic ID and skewed X-inactivation in a child with NAA10 dysfunction and a novel heterozygous de novo NAA10 p.(His16Pro) variant - a case report” (BMC Medical Genetics, 2020).
